Reference: the nanobody polyreactivity screen of Harvey et al. (2022)

Assay: yeast display, Sf9 membrane polyspecificity reagent, FACS + sequencing; frameworks hold sequencing errors
Outline: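 Genes from sorted yeast were amplified by colony PCR, read by MiSeq 2 × 250 sequencing and filtered on CDR length. These cells carried a synthetic nanobody library in Saccharomyces cerevisiae BJ5465 and were sorted by FACS into low and high (top ~1%) gates on anti-HA and streptavidin fluorescence. Polyreactivity is labelled according to the gate of origin.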

| Sequence | polyreactivity (PSR sort gate) |
| --- | --- |
| QVQLVESGGGLVQAGGSLRLSCPASGRTYASYAMGWYRQAPGKDRELVAAITSSGGSTYYADSVKGRFTISRDNAKNTVYLQMNSLKPEYTAVYYCAARSRYRGDSWGQGTQVTVSS | high polyreactivity |
| QVQLVESGGGLVQAGGSLRLSCAASGSTFRGYAMGWYRQEPGKEREFVASISLSGGSTYYADSVKGRFTISRDNAKYTVYLQMNSLKPEDSAVYYCAARARGYGWRGDYWRQGTQVTVSS | low polyreactivity |
| QVKLVDSGGGLVQAGGSLRLSCAASGSIFGAYAMGWYRQAHGKERELVAPITLRDGSTYYADSVKGRFTISRDNAKNTVYLQLNSLKPEDTAVYYCATYYSAINYGWSKTILYDYWGQGTQVTVSS | low polyreactivity |
| QVQLVESGGGLVQAGGSLRLSCAASGSTFSKNTMGWYRQAPGKERELVAAITGTGDSTYYADSVKGRFTISRDNAKYPVYLQMNSLKPEDTAVYYCAADAYSLCYESWGQGTKVTVSS | low polyreactivity |
| QVQLVESGGGFVQAGGSLRLSCAASGSICAGYAMGWYRQAPGKERVLVAGITIGGSTNYADSVKGRFTISRDNAKNTVYLQMNSLKPEDTAVYYCAARRVQSVYRIPRRYHSYGYWGQGTQVTVSS | high polyreactivity |
| QVQLVESGGGLVQAGGSLRLICAASGYTFPYAMGWYRQAPGKERELVAAISRSGASTYYADSVKGRFTISRDNAKNTVYLQMNSLKPEDTAVYYCATRRVYSTRVKFYYWGQGTQVTVSS | high polyreactivity |
| QVQLVESGGGLVQAGGSLRLSCAASGFTFWDYAMGWYRQAPGKERELVAAISDNDGSTDYADSVKGRFTISRDNAKNTVYLQMNSLKPEDTAVYYCNAEIEMPSKEGDYWGQGTQVTVSS | low polyreactivity |
| QVQLVESVGGLFQAGRSLRLSGAASGTTFVWNAMGWYRPAPGKERELVATITLSTGSTYYADSVKGRFTISRDNAKNSVYLQMNSLKPEDTAVYYGNTEIYVDIISDYGYWGQGTQVTVSS | low polyreactivity |
| QVQLVESGGGLVQAGGSLRLSCPASGSIIYTNDMGWYRQEPGKEREMVAAISYGGTTTYADSVKGRFTISRDNAKNTVYLQMNSLKPEDTAVYYCNADWLYYGYWGYGHIWYDFWGQGTQVTVSS | low polyreactivity |
| QVQLVESGGGLVQAGGSLRLSCAASGFIFVINAMGWYRQAPGKERELVAGISSGGRTNYADSVKGRFTISRDNAKNTVYLEMKSLKPEDTAVYYCAAAPTYKWRRKNYDYWGQGTQVTVSS | high polyreactivity |
| QVQLVESGGGLVQAGGSLRLSCAASGFTFRKYAMGWYRPAPGKERELVAGITSGGSTNYADSVKGRFTISRDNAKNTVYLQMNSLKPEDTSVYYCNAARYYAYIGDYWGQGTQVTVSS | high polyreactivity |
| QVQLVESGGGLVQAGGSLRLSCAASGRTIRYNALGWYREARGKERELVASIRRGGSTNYADSVKGRCTISRDNAKNPVYLHMNSLKPEDTAVSYCAAAGGGVRKVWGGSRYGYWGQGTQVTVSS | high polyreactivity |
| QVQLVESGGGLVQAGGSLRLSCAASGSIYLIYAMGWYRQAPGKERELDAAISRSGGHTYYADSVKGRFTISRDNAKITVYLQMNSLKPEDTAVYYCAAKSYSSGTYGYNYWGQGTQVTVSS | high polyreactivity |
| QVQLVESGGGLVQAGCSLRLSCAASGSIFGYNAMGWYRQAPGKERELVAAITGSGGSTYYADSVKGRFTISRDNAKNTVYLQMNSLKPEDTAVYYCADDLFGGPLGYWDYDYWGQGTQVTVSS | low polyreactivity |
| QVQLVESGGGLVQAGGSLRLSCAASGRIFSKNAMGCYRQQPGKERELVAAISRSGGGTYYADSVKGRFTISRDTAKNTVYLQMNSLKPEDTAVYYCATRYGSWGQGTQVTVSS | high polyreactivity |
| QVQLVESGGGLVQAGGSLRLSCAASGITFGKNAMGWYRQAPGKERELVATIRRSGGSTYADSVKGRFTISRDNAKNTVYLQMNSLKPEDTAVYYCNARSWNTYNYWGQGTQVTVSS | high polyreactivity |
| QDQLVESGGGLVQAGGSLRLSCAASGSTIYAYAMGWYRQAPGKERELVARIRWRGGRTYYADSVKGRFTISRDNAKNTVYLRMNSLKPEDTAVYYCAAYKRRSNGRYWTYDYWGQGTQVTVSS | high polyreactivity |
| QVQLQESGGGLVQAGGSLRLSCAASGSLFLFYTMGWYRQAPVIEREFVAGITLGTTTYNADSVKGRFTISRDNVKNTVFLQMNSLKPEDTAVYYCAVAVGHYTEFWYWGQGTQVTMSS | high polyreactivity |
| QVQLVESGGGLVQAGGSLRLSCAASGRIFVSNAMGWYRLAPGKERELVATISRSGGNTYYADSVKGRFTISRDNAKNTVYLQMNSLKPEYTAVYYSNSVSRRSYVKYDYWRQGTQVTVSS | high polyreactivity |
| QVQLVESGGGLVQAGGSLRLSCAASGSILGTYAMGWYRPAPGKESELVAAISSSGRTSYADTVKGRFTNSRDNAKNTVYLQMKSLKPEDTAVYYCNASNYIVLINDPDAAPWVYDYWGPGTQVTVSS | low polyreactivity |
| QVQLVESGGGLVPAGGSLRLSSAASGRIFVRNAMGWYRQAPGKERELVAAITRTGASTYYADSVKGRFTISRDNEKNTVYLQMNSLKPEDTAVYFFAAVWGWPYWVYRYDYWGQGTQVTVSS | high polyreactivity |
| QVQLVESGGGLVQAGGSLRLSCAASGRIFPDNTMGWYRQAPGTERELVAAITSSGGSTYYADSVKGRFTISRDNAKNTVYLQMNSLKPEDTAVYYCAAAVKRGYAQSFISDGYGYWGQGTQVTVSS | low polyreactivity |

| Sequence | polyreactivity (PSR sort gate) |
| --- | --- |
| QVQLVESGGGLVQAGGSLRLICAASGSTYSVYAMVWYRQAPGKERELVATITWNGGRTYYADSVKGRFTISRDNAKNTVYLQMNSLKPEDTAVYYCAADGWTSIGGPDYQHDYWGQGTQVTVSS | high polyreactivity |
| QVQLVESGGGLVQAGGSLRLSCAASGRTFTINAMGWYRQAPGKERELVATIRSSGGSTSYADSVKGRFTISRDNAKNTVYLQMNSLKPEDTAVYYCAADGWGRYDYWGQGTQVTVSS | low polyreactivity |
| QVQLVESGGGLVQAGGRLRLSCAASGLTFYLSAMGWYRQAPGKERELVAGISRSGGSTYYADAVKGRFTISRDYAKNTVYLLMNSLKPEDTAVSYCNKASAVFEFYYWGQGTQVTVSS | high polyreactivity |
| QVQLVESGGGLVQAVGSLRLSCAASGSIFGGYAMGWYRQAPGKERELVAAITYSGGSTYYADSVKGRFTISRDNAKNTVYLQMNSLKPEDTAVYYCAAESYDPYYEYDYWGQGTQVTVSS | high polyreactivity |
| QVQLVESGGGLVQAGGSLRLSCAPSGSTFARNAMGWYRQAPGKERDLVAAIATSGGRTYYADTVKGRFTISRDIAKNTVYLQMNSLKAEDTAVYYCAAAFSLGMYWGQGTQVTVSS | high polyreactivity |
| QVQLVESGGGLVQAGGSLRLSCAASGLTFRYYAMGWYRQAPGKERELVAAITRRGSTYYADSVKGRFTISRDNAKNSVYLQMNSLKPEDTAVYYGATVTGFHSSPLRDLDYWGQGTQVTVSS | high polyreactivity |
| QVQLVESGGCLVQAGGSLRLSCAASGRTFRYYAMGWYRQAPGKERELVAAISSSGDRTYYADSVKGRFTISRDNAKNTVYLQMNSLKPEDTAVYYCAADRGARGDYWGQGTQVTVSS | high polyreactivity |
| QVQLVESGGGLVQAGGSLRLSCAASGSIFLVNAMGWYRQAPGKERELVAIDGSGGSTYADSVKGRFTISRDNAMNTVYLQMNILKPEDTAVYYCAKDQEGPLYDYWGQGTQVTVSS | low polyreactivity |
| QVQLVESGGGLVQAGGSLRLSCAASGFTFAGNAMGWYRPAPGKERELVAAISRRGGSTYYADSVKGRFTISRDNAKNTVYLQMNSLKPEDTAVYYCAAVYPYDYDYWGQGTQVTVSS | high polyreactivity |
| QVQLVESGGGLVQAGVSLRLSCAASGSIFYEYAMGWYRQAPGKEREFVAAISSSGGSTYYADSEKGRFTISRDNAKNSVYLQMNSLKPEDTAAYYCNAQVGGVSFEYDYWGQGTQVTVSS | low polyreactivity |
| QVQLVQSGGGLVQAGGSLRLSCAASGSIIGTYAMGCYRQAPGKERELVADINSGGSTYYADSVKGRFTISRDNAKNTVYLQMNSLKPDDTAVYYCAATGGVLYGTWLSYDRWGGGYWGQGTQVTVSS | low polyreactivity |
| QDQLVESGGGLVHAGGSLRISCAASGRILYAYPMGWYRQAPGKERELVAAINWSGGSTYYADSVKGRFTISRDNAKNTVYLQMNSLKPEDTAVYYCNRVLDPTNKYYYWGQGTQVTVSS | high polyreactivity |
| QVQLVESGGGLVQAGGSLRLSCAASGSILSLYTMGWYRQAPGKERELVAAITSRGTRTYYADSVKGRFTISRDYAKNTVYLQMNRLKPEDTAVYYCAAGSYYWGQGTQVTVSS | high polyreactivity |
| QVQLVESGGGLVQAGGSLRLSCAASGSTFGSYGMGWYRQAPGKEREVVAVITYSGDRTYYADSVKGRFTISRDNAKNTVYLQMNSLKPEDTAVYYCAADRSYRVSEYDYWGQGTQVTVSS | low polyreactivity |
| QVQLVESGGGLVQAGGSLRLSCAASGRIFAGYVMGWYRQAPGKERELVAAISWRGGRTYYADSVKGRFTISRDNAKNTVYLQMNSLKPEDTAVYYCNAPYAVGYPADDYWGQGTQVTVSS | high polyreactivity |
| QVQLVESGGGLVQAGGSLRLSSAASGSIFYDNAMAGYRQAPGKERELVAVITVSGESTYYADSVKGRFTISRDNAKTTVYLQMNSLKPEDTAVYYCNTDAISGSHFWRYITFGYLDDYWGQGTQVTVSS | low polyreactivity |
| QVQLVESGAGLVMAGGSLRLSCAASGRTISIYAMGWYRQAPGKERQLVAAISQSSSITYYADSVKGRFTLSRDNANNTVYLQMISLKPEDTACYYCNAVVLRYQGSWLEYWGQGTQVTVSS | low polyreactivity |
| QVQLVESGGGLVQAGGSLRLSCAASGSTLGRNAMGWYRQAPGKERELVAAISSTGGSTSYADSVKGRFTISRDNAKNTVYLQMNSLKPEDTAVYYCAKRFSPRYYYWGQGTQVTVSS | high polyreactivity |
| QVQLVESGGGLVQEGGSLRLSCAASGSNLKGYAMGWYRQAPGKERELVARITRGGSTNYADSVKGRFTISRDNAKNTVYLQRNSLKPEDTAVYYCNKSGRWSARSASREVGDDYWGQGTQVTVSS | low polyreactivity |
| QVQLVESGGGLVQAGGSLRLSCAASGFIFYRNAMGWYRPAPGKERELVAAINRGGSTYYADSVKGRFTISRDNAKNTVYLQMNSLKPEDTAVYYCAAYHLRPSRYDYWGQGTQVTVSS | high polyreactivity |
| QVQLVESGGGLVQAGGSLRLSCAASGSTFSRNAMGWSRQAPGKERELVAAISYRGGSTYYADSVKGRFTISRDNAKNTVYLQMNSLKPEDTAVYYCNADVGWRAPDYGGYDYWGQGTQVTVSS | high polyreactivity |
